Experimental findings from publication PMC12647877, “The SMC Hinge is a Selective Gate for Obstacle Bypass” (Nature Communications, 2025) are described below.

The target in data set [1] is T1, scSmc4(598-923) condensin hinge/coiled coil with V721C and M821C (S. cerevisiae, UniProt Q12267 598-923, V721C | M821C).
T1 construct: Smc4, S. cerevisiae condensin, residues 598-923; also called scSmc4 hinge; source: Sf9, co-purified with scSmc2 hinge (Strep-Tactin XT, cation exchange, SEC)
T1 sequence (looked up): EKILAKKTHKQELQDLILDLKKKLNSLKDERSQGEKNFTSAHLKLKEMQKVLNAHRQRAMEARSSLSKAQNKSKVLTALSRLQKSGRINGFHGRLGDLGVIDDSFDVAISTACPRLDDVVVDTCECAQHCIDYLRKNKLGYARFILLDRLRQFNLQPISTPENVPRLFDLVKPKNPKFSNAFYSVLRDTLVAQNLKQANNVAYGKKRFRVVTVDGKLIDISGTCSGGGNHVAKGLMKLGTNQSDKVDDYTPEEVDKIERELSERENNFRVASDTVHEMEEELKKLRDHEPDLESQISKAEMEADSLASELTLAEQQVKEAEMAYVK
In words: cross-linking; cysteine cross-linking with BMOE (0.58 mM, 6 min on ice) of purified scSmc2/4 hinge, 1.4 µM in CB buffer (50 mM NaCl, 1 mM MgCl2, 50 mM HEPES pH 7.5, 1 mM TCEP, 5 % glycerol); SDS-PAGE. Conditions: both partners purified.

Data set [2] deals with the molecule itself. In words: cross-linking; cysteine cross-linking with BMOE (1 mM, 45 s, quenched with DTT) of purified hinge/coiled coil constructs in 20 mM Tris-HCl, 50 mM NaCl; SDS-PAGE, and denaturing agarose gels of entrapped ssDNA circles.

B1: scSmc2(443-740) condensin hinge/coiled coil with S560C and K639C (domain or fragment, S. cerevisiae, UniProt P38989 443-740, looked up)
chain: KDNELNVKHVKQCQETCDKLRARLVEYGFDPSRIKDLKQREDKLKSHYYQTCKNSEYLKRRVTNLEFNYTKPYPNFEASFVHGVVGQLFQIDNDNIRYATALQTCAGGRLFNVVVQDCQTATQLLERGRLRKRVTIIPLDKIYTRPISSQVLDLAKKIAPGKVELAINLIRFDESITKAMEFIFGNSLICEDPETACKITFHPKIRARSITLQGDVYDPEGTLSGGSRNTSESLLVDIQKYNQIQKQIETIQADLNHVTEELQTQYATSQKTKTIQSDLNLSLHKLDLAKRNLDANPS
notes: Smc2, S. cerevisiae condensin, residues 443-740; also called scSmc2 hinge; source: Sf9, co-purified with scSmc4 hinge (Strep-Tactin XT, cation exchange, SEC)
For B1, the binding result in data set [1] is listed as “binds”.

B2: bsuSmc(400-776; C437S, R558C, N634C) hinge/coiled coil (domain or fragment, B. subtilis, UniProt P51834 400-776, looked up)
chain: QLLDDQMSQSAVTLQRLADNNEKHLQERHDISARKAASETEFARIEQEIHSQVGAYRDMQTKYEQKKRQYEKNESALYQAYQYVQQARSKKDMLETMQGDFSGFYQGVKEVLKAKERLGGIRGAVLELISTEQKYETAIEIALGASAQHVVTDDEQSACKAIQYLKQNSFGRATFLPLSVIRDRQLQSRDAETAARHSSFLGVASELVTFDPAYRSVIQNLLGTVLITEDLKGACELAKLLGHRYRIVTLEGDVVNPGGSMTGGAVKKKNNSLLGRSRELEDVTKRLAEMEEKTALLEQEVKTLKHSIQDMEKKLADLRETGEGLRLKQQDVKGQLYELQVAEKNINTHLELYDQEKSALSESDEERKVRKRKLEEE
notes: Smc (chromosome partition protein Smc), Bacillus subtilis, residues 400-776; also called bsuSmc hinge; B. subtilis Smc hinge; source: E. coli BL21(DE3) Gold, purified (as the scSmc5/6 hinge constructs: HisTrap, SEC)
B2: in data set [2], the binding result is listed as “binds”.
